Residue numbers refer to the chain shown, from its start.
Columns and labels:
PET28-NgAP2a [1] = target: T1, PET28-NgAP2a (Nannochloropsis gaditana, UniProt W7TGT1 140-326); experiment: EMSA; Beyotime Chemiluminescent EMSA Kit GS009 per manual; buffer, salt, pH and temperature not stated; details: protein: recombinant; label: 3' biotin; blunt
T1 sequence: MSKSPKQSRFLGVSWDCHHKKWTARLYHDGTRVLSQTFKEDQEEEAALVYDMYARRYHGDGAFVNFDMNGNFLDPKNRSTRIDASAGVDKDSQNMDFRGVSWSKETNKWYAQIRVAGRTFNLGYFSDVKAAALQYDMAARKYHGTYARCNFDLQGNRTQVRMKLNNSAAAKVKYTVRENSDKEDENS

PET28-NgAP2a [2] = target: T1, PET28-NgAP2a; experiment: competition; 100x unlabeled vs biotin M5 probe; Beyotime Chemiluminescent EMSA Kit GS009 per manual; buffer, salt, pH and temperature not stated; details: protein: recombinant; label: none (unlabeled); blunt

B1: M3 probe (EMSA3) (dsDNA)
DNA 1: GGCGTTGCCACTTGGGCAAAGAAAAGCTGG
DNA 2: CCAGCTTTTCTTTGCCCAAGTGGCAACGCC
binding result (PET28-NgAP2a [1]): no binding

B2: M5 probe (EMSA5) (dsDNA)
DNA 1: CTCATTCCCATACCGCAAGTACCTGACCCTGTA
DNA 2: TACAGGGTCAGGTACTTGCGGTATGGGAATGAG
binding result (PET28-NgAP2a [1]): binds

B3: mutant M5 competitor (mu_EMSA5) (dsDNA)
DNA 1: B2 DNA 1 with C13A, C14A, G15A
DNA 2: B2 DNA 2 with C19T, G20T, G21T
binding result (PET28-NgAP2a [2]): no binding

B4: unlabeled M5 competitor (dsDNA)
DNA 1: B2 DNA 1
DNA 2: B2 DNA 2
binding result (PET28-NgAP2a [2]): binds

Reference: article PMC11477109, “NgAP2a Targets KCS Gene to Promote Lipid Accumulation in Nannochloropsis gaditana”
